# Data from patent US20130011412A1 (Genentech, published 2013).
# Changes are numbered by the printed parent chain. Names and notes keep the numbering of the source.
# B1: humanized 3F12.v2 (antibody, IgG1, name in Kabat numbering, V domains shown)
# VH: EVQLVESGGGLVQPGGSLRLSCAASGYTFSSYWIEWVRQAPGKGLEWVGEISPGSGSTNYNEEFKGRATFSADNSKNTLYLQMNSLRAEDTAVYYCADGYHGYWGQGTLVTVSS
# VL: DIQMTQSPSSLSASVGDRVTITCKSSQSLLYSTNQKNFLAWYQQKPGKAPKLLIYWASTRDSGVPSRFSGSGSGTDFTLTISSLQPEDFATYYCQQYYSYPRTFGQGTKVEIKR
# notes: Built back from 3F12.v5; human kappa / IgG1 constant domains; also called I69F
# B2: humanized 3F12.v5 (antibody, IgG1, V domains shown)
# VH: B1 VH with L79A
# VL: B1 VL
# notes: Human kappa / IgG1 constant domains (vectors of humanized 2G7 version 5); also called version 5
# B3: 3F12 version 31 (3F12.v5 with E62A, CDR-H2) (antibody, IgG1, V domains shown)
# VH: B1 VH with E63A, L79A
# VL: DIQMTQSPSSLSASVGDRVTITCKSSQSLLYSTNQKNFLAWYQQKPGKAPKLLIYWASTRDSGVPSRFSGSGSGTDFTLTISSLQPEDFATYYCQQYYSYPRTFGQGTKVEIK
# notes: Alanine-scan variant of 3F12.v5; human kappa / IgG1
# B4: humanized 3F12.v4 (antibody, IgG1, name in Kabat numbering, V domains shown)
# VH: B1 VH with F70I, L79A
# VL: B1 VL
# notes: Built back from 3F12.v5; human kappa / IgG1 constant domains; also called L78A
# B5: chimeric anti-LTα antibody 3F12 (original chimera) (antibody, human IgG1, kappa, V domains shown)
# VH: QGQLQQSGAELMKPGASVKISCKATGYTFSSYWIEWVKQRPGHGLEWIGEISPGSGSTNYNEEFKGKATFTADKSSNTAYIQLSSLSTSEDSAVYYCADGYHGYWGQGTTLTVSS
# VL: DIVMSQSPSSLAVSVGEKVTMSCKSSQSLLYSTNQKNFLAWYQQKPGQSPKLLIYWASTRDSGVPDRFTGSGSGTDFTLTISSVKAEDLAVYYCQQYYSYPRTFGGGTKLEIKR
# notes: Murine variable domains on human C kappa and IgG1; also called 3F12 chimera; chimeric 3F12
# B6: LTbR.huIgG1 (Fc fusion, human, UniProt P36941 31-227, looked up)
# receptor-Fc fusion chain: QAVPPYASENQTCRDQEKEYYEPQHRICCSRCPPGTYVSAKCSRIRDTVCATCAENSYNEHWNYLTICQLCRPCDPVMGLEEIAPCTSKRKTQCRCQPGMFCAAWALECTHCELLSDCPPGTEAELKDEVGKGNNHCVPCKAGHFQNTSSPSARCQPHTRCENQGLVEAAPGTAQSDTTCKNPLEPLPPEMSGTMLM
# notes: receptor portion of an Fc fusion; also called LTβ-receptor.huIgG1; human LTβR.huIgG1
# B7: chimeric anti-LTα antibody 2C8 (antibody, human IgG1, kappa, V domains shown)
# VH: EVQLQQSGPELVKPGASVKLSCKASGYTFTSYVIHWVKQKPGQGLEWIGYNNPYNDGTNYNEKFKGKATLTSDKSSSTAYMELSSLTSEDSAVYYCSRPTMLPWFAYWGQGTTLTVSA
# VL: DIVMTQSHKFMSTSVGDRVSITCKASQAVSSAVAWYQQKPGQSPKLQIYSASHRYTGVPDRFTGSGSGTDFTFTISSVQAEDLAVYYCQQHYSTPWTFGGGTKVEIKR
# notes: Murine variable domains on human kappa and human IgG1; also called 2C8 chimera; 2C8.chimera
# B8: LTbR.muIgG2a (Fc fusion, mouse, UniProt P50284 31-223, looked up)
# receptor-Fc fusion chain: QLVPPYRIENQTCWDQDKEYYEPMHDVCCSRCPPGEFVFAVCSRSQDTVCKTCPHNSYNEHWNHLSTCQLCRPCDIVLGFEEVAPCTSDRKAECRCQPGMSCVYLDNECVHCEEERLVLCQPGTEAEVTDEIMDTDVNCVPCKPGHFQNTSSPRARCQPHTRCEIQGLVEAAPGTSYSDTICKNPPEPGAMLL
# notes: receptor portion of an Fc fusion; also called LTβ-receptor murine IgG2a; muLTβR.IgG2a
# B9: humanized 2C8.v2 (antibody, IgG1, V domains shown)
# VH: EVQLVESGGGLVQPGGSLRLSCAASGYTFTSYVIHWVRQAPGKGLEWVGYNNPYNDGTNYNEKFKGRATISSDKSKNTAYLQMNSLRAEDTAVYYCSRPTMLPWFAYWGQGTLVTVSS
# VL: DIQMTQSPSSLSASVGDRVTITCRASQAVSSAVAWYQQKPGKAPKLQIYSASHRYTGVPSRFSGSGSGTDFTLTISSLQPEDFATYYCQQHYSTPWTFGQGTKVEIKR
# notes: also called Version 2
# B10: phage-displayed 2C8.v2 Fab, wild-type phagemid clone (Fab, V domains shown)
# VH: B9 VH
# VL: B9 VL
# notes: also called wild-type 2C8.v2
# B11: humanized 2C8.v12 (antibody, V domains shown)
# VH: B9 VH with A68F
# VL: B9 VL with Q47L
# notes: Human kappa / IgG1; also called Version 12; copies: 2 + 2
# B12: phage-displayed 2C8 Fab clone G7 (Fab, V domains shown)
# VH: B9 VH
# VL: B9 VL with Q90E, H91N
# notes: also called 2C8 clone G7
# B13: phage-displayed 2C8 Fab clone H6 (Fab, V domains shown)
# VH: B9 VH
# VL: B9 VL with Q90E, H91V
# notes: also called 2C8 clone H6
# B14: phage-displayed 2C8 Fab clone D8 (Fab, V domains shown)
# VH: B9 VH
# VL: B9 VL with H91F, T94V
# B15: phage-displayed 2C8 Fab clone G2 (Fab, V domains shown)
# VH: B9 VH
# VL: B9 VL with H91Y
# B16: phage-displayed 2C8 Fab clone H9 (Fab, V domains shown)
# VH: B9 VH
# VL: B9 VL with S93Y
# B17: humanized 2C8.v7 (antibody, V domains shown)
# VH: B9 VH
# VL: B9 VL with Q47L
# notes: Human kappa / IgG1; copies: 2 + 2
# B18: phage-displayed 2C8 Fab clone G12 (Fab, V domains shown)
# VH: B9 VH
# VL: B9 VL with Q90K, H91T, Y92F
# B19: phage-displayed 2C8 Fab clone C12 (Fab, V domains shown)
# VH: B9 VH
# VL: B9 VL with Q90E
# Assays:
# [1] = target: T1, recombinant human lymphotoxin-α homotrimer (human LTα3) (human, UniProt P01374 35-205); experiment: plate ELISA on coated LTα
# T1 construct: Coated on plates in the ELISAs; also called rhLTα; lymphotoxin-α3 trimer
# T1 sequence (looked up): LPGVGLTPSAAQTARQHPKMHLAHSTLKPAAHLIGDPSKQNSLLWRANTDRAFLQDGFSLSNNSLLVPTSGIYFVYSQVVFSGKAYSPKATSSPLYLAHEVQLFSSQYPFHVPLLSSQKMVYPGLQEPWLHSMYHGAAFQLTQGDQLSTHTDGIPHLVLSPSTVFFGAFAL
# [2] = target: T1, recombinant human lymphotoxin-α …; experiment: plate ELISA on coated LTα; remark: listed apart in the source
# [3] = target: T1, recombinant human lymphotoxin-α …; experiment: plate-based ELISA against LTα
# [4] = target: T1, recombinant human lymphotoxin-α …; experiment: blocking ELISA: biotinylated human LTα3 preincubated with the antibody, then captured on coated TNFRII.huIgG1 (m10)
# [5] = target: T1, recombinant human lymphotoxin-α …; experiment: direct ELISA on plate-coated human LTα3 (1 µg/ml)
# [6] = target: T2, human cell-surface LTαβ complex (LTα complexed with LTβ on the cell surface) (human, UniProt P01374 35-205; Q06643 1-244); experiment: FACS titration on human Th1 cells, Alexa Fluor 647 conjugates
# T2 construct: whole, on cells; also called human LTαβ
# T2 sequence (looked up) 1: T1 sequence (looked up)
# T2 sequence (looked up) 2: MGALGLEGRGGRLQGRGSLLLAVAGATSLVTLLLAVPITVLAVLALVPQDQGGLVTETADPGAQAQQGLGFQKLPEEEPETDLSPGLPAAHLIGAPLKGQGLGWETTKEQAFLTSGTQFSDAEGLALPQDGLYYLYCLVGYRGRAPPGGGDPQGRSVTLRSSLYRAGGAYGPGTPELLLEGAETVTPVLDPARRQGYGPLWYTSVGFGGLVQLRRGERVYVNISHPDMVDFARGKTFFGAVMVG
# Experimental: Cells were washed, aspirated, and re-suspended in PBS with 2% FBS. Cells were analyzed on a FACSCALIBUR™ (dual laser) using […]™ software, and results analyzed on a FLOWJO™ analyzer (Treestar).
# [7] = target: T1, recombinant human lymphotoxin-α …; experiment: BIACORE (rhLTα)
# [8] = target: T1, recombinant human lymphotoxin-α …; experiment: plate ELISA on coated human LTα
# [9] = target: T3, murine cell-surface LTαβ complex on transfected SVT2 cells (murine, UniProt P09225 34-202; P41155 1-306); experiment: FACS on SVT2 cells stably expressing murine LTαβ, reagents conjugated to ALEXA-647
# T3 construct: whole, on cells; also called murine LTαβ
# T3 sequence (looked up) 1: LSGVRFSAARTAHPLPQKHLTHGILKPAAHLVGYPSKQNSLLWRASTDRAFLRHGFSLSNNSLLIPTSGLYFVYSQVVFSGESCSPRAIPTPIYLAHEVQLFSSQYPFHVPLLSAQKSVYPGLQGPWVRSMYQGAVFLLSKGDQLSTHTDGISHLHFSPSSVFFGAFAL
# T3 sequence (looked up) 2: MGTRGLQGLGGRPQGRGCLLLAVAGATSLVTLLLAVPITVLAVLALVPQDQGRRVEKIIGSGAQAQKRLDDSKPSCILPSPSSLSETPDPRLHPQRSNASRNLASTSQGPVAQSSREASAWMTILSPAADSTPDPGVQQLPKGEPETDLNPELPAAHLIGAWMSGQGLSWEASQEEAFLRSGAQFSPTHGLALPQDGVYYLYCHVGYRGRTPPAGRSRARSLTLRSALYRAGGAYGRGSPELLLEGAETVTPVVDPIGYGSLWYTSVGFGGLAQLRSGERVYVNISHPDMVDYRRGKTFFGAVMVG
# Experimental: For murine LTαβ, SVT2 cells were transfected with full-length murine LTα and murine LTαβ (murine LTα sequence GenBank Ref NM_{—}010735; murine LTβ sequence GenBank Ref NM_{—}008518) to generate stable murine LTαβ-expressing cell lines. […] Cells were washed, aspirated, and resuspended in PBS with 2% FBS. Cells were analyzed on a FACSCALIBUR™ (dual laser) using […]™ software, and results analyzed on a FLOWJO™ analyzer (Treestar).
# [10] = target: T1, recombinant human lymphotoxin-α …; experiment: phage competitive ELISA: rhLTα in solution competes with plate-coated LTα
# Experimental: For the first round, phage were captured for 2 hours against 2 μg/ml plate-coated LTα at ambient temperature. The second and third rounds of selection were performed at ambient temperature by capturing phage for 30 minutes with 2 nM biotinylated LTα in solution phase, followed by capture on neutravidin-coated plates. The highest affinity clone was identified using a competitive ELISA. Constant concentrations of phage clones (normalized by solid-phase LTα binding OD) were incubated with increasing concentrations of LTα (0-50 nM) in solution before capture on a plate coated with 2 μg/ml LTα.
binder,measurement,setting,value
B1,Relative binding,[1],> 1000 fold down from the chimera
B2,fold weaker binding than the chimera,[2],~5 fold
B3,relative binding (EC50 of the variant / EC50 of version 5),[3],1.93 ratio
B4,Relative binding,[1],> 500 fold down from the chimera
B5,Relative binding,[1],1 relative to the original chimera
same,IC50 (read off the curve),[4],~20 nM
same,EC50 (read off the curve),[5],~0.3 nM
B6,EC50 (read off the curve),[6],~0.05 µg/mL
B7,Kd,[7],0.6 nM
same,IC50 (read off the curve),[4],~5 nM
same,ELISA IC50 ratio,[8],1 ratio
same,EC50 (read off the curve),[5],~0.1 nM
B8,binding result,[9],binds
B9,Kd,[7],0.2 nM
same,kon,[7],600000 M⁻¹ s⁻¹
same,ELISA IC50 ratio,[8],1.7 ratio
B10,IC50,[10],3.14 nM
B11,Kd,[7],0.07 nM
same,ELISA IC50 ratio,[8],1 ratio
B12,IC50,[10],0.57 nM
B13,IC50,[10],1.1 nM
B14,IC50,[10],137 nM
B15,IC50,[10],4.51 nM
B16,IC50,[10],3.8 nM
B17,Kd,[7],0.4 nM
same,ELISA IC50 ratio,[8],1.2 ratio
B18,IC50,[10],5.34 nM
B19,IC50,[10],3.41 nM
